Assay results published in article PMC6160412 (2018).

Legend:
Assay in all cases: SPR
[1] = biological target: human LRRTM2 LRR domain, F357Y mutant (human, UniProt O43300 34-371, F357Y)
[2] = biological target: human LRRTM2 LRR domain, D352A mutant (human, UniProt O43300 34-371, D352A)
[3] = biological target: Neurexin-1β (+S4) (Mus musculus, UniProt P0DI97)
Chain of Neurexin-1β (+S4) (P0DI97 47-392): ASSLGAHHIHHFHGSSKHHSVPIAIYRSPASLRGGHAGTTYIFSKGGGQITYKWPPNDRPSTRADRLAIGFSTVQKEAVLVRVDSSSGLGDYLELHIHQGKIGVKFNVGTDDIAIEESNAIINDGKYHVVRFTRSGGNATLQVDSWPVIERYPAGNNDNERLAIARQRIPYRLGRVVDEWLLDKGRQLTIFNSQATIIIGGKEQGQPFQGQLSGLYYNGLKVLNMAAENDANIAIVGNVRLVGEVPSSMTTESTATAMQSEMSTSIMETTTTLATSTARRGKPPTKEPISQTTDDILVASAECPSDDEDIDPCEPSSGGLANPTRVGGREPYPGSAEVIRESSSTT

| Binder | Kd [1] [µM] | Kd [2] [µM] | Kd [3] [µM] |
| --- | --- | --- | --- |
| human Nrxn1β LNS domain (–S4), wild type (domain or fragment) not shown | 19.3 | > 34 | – |
| LRRTM2 (protein) CPPKCRCEKLLFYCDSQGFHSVPNATDKGSLGLSLRHNHITALERDQFASFSQLTWLHLDHNQISTVKEDAFQGLYKLKELILSSNKIFYLPNTTFTQLINLQNLDLSFNQLSSLHPELFYGLRKLQTLHLRSNSLRTIPVRLFWDCRSLEFLDLSTNRLRSLARNGFAGLIKLRELHLEHNQLTKINFAHFLRLSSLHTLFLQWNKISNLTCGMDWTWSTLEKLDLTGNEIKAIDLTVFETMPNLKILLMDNNKLNSLDSKILNSLKSLTTVGLSGNLWECSPRVCALASWLGSFQGRWEHSILCHSPDHTQGEDILDAVHGFQLCWNLSTTVTAMATTYRDPTTEYTKISSSSYHVGDKEIPTTAGIAVTTEEHFPEPDNAIFTQRVITGTMALLFSFFFIIFIVFISRKCCPPTLRRIRQCSMIQNHRQLRSQTRLHMSNMSDQGPYNEYEPTHEGPFIIINGYGQCKCQQLPYKECEV | – | – | > 80 |
